In test [1] the target is yeast Gβγ (STE4/STE18) (Saccharomyces cerevisiae) (UniProt P18851). Description: cell-based or functional assay.
Test [2] deals with human adenosine A2a receptor (human) (UniProt P29274). Description: cell-based or functional assay.

This note sets out measurements from patent US20050202403A1.

“And” between values parts separate entries of the source, which are not always exact repeats. Identical values can stand only once.

Chain of yeast Gβγ (STE4/STE18) (Saccharomyces cerevisiae) (P18851 whole entry, chain 1 of 2): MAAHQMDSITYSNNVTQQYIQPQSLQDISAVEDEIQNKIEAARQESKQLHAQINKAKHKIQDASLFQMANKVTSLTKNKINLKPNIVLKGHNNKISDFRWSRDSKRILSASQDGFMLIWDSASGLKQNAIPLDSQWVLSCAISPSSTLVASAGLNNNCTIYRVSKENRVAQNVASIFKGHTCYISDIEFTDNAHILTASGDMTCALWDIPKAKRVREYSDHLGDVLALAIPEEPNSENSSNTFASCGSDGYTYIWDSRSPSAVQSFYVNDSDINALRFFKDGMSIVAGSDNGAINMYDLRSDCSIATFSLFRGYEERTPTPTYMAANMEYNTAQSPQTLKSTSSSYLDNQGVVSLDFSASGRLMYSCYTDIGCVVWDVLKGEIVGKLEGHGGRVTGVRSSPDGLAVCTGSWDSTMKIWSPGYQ
Chain of yeast Gβγ (STE4/STE18) (Saccharomyces cerevisiae) (P18852 1-107, chain 2 of 2, further chain): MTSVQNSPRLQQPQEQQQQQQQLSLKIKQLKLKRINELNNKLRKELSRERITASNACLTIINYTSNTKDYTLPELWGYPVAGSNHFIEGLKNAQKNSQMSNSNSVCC
Chain of human adenosine A2a receptor (human) (P29274 whole entry): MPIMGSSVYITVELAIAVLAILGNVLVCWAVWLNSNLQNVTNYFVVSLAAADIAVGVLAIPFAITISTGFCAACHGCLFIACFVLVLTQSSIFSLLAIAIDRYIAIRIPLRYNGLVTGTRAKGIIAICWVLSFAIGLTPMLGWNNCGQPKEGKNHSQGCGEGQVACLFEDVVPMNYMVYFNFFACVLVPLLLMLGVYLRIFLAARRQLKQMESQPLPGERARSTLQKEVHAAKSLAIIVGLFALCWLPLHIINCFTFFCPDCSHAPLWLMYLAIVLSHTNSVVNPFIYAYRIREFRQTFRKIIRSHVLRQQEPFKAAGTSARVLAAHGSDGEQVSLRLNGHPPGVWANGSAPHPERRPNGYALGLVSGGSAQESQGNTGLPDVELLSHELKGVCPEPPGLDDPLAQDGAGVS
Chain of GPA1-Gα12 chimera (Cp3435) (P08539 1-41, change not shown): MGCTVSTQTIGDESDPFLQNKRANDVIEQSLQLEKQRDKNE
Chain of GPA1-Gα12 S288P chimera (Cp3822) (P08539 1-41, stated change not applied): as the sequence (P08539 1-41, change not shown) above
Chain of GPA1(41)-Gαi1 (P08539 1-41): as the sequence (P08539 1-41, change not shown) above
Chain of GPA1(41)-Gαi2-Gαo(40) (P08539 1-41): as the sequence (P08539 1-41, change not shown) above
Chain of rat Gαs, wild type (Cp3098) (P63095 2-394): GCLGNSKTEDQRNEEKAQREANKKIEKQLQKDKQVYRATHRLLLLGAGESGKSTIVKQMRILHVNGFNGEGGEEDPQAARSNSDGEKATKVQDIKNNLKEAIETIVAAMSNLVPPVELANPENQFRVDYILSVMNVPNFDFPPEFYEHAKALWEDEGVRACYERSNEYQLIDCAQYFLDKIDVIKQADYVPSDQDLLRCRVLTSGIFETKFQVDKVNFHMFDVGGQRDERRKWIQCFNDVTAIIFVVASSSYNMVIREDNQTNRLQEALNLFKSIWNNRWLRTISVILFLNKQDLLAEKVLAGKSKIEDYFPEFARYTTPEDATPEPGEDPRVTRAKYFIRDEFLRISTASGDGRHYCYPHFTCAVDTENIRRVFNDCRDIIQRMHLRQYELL
Chain of GPA1(20)-Gα16 (P08539 1-20): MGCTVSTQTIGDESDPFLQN
Chain of Gpal(1-43)-Gαi2(36-242)-GαoB(243-354) S280P chimera (Cp3635) (P08539 1-43, stated change not applied): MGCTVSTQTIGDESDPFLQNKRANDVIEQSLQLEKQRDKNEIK

With “GPA1(20)-Gα16 (from UniProt P08539 1-20)”, in test [1], the min[AT]i is 1 mM.

Substance “GPA1(20)-Gα16(S-P) (from UniProt P08539 1-20)” yielded a min[AT]i in test [1] of 0.5 mM.

With “GPA1(41)-Gαi1 (from UniProt P08539 1-41)”, in test [1], the min[AT]i worked out at 0.5 mM.

“GPA1(41)-Gαi2 (from UniProt P08539 1-41; P04899 36-355)” displayed a min[AT]i in test [1] of 0.5 mM.

Substance “GPA1(41)-Gαi2-Gαo(40) (from UniProt P08539 1-41)” gave a min[AT]i in test [1] of 1 mM.

For the substance “GPA1(41)-Gαi3 (from UniProt P08539 1-41; P08754 36-354)”, in test [1], the min[AT]i was 0.5 mM.

With “GPA1-Gα12 S288P chimera (Cp3822) (from UniProt P08539 1-41)”, in test [1], the growth of gpa1 fus1-HIS3 yeast on aminotriazole turned out to be 0.5 mM and the min[AT]i is 1 mM.

For “GPA1-Gα12 chimera (Cp3435) (from UniProt P08539 1-41)”, the growth of gpa1 fus1-HIS3 yeast on aminotriazole in test [1] is 2.5 mM and 1 mM.

For the substance “Gpal(1-43)-Gα16(45-374) S270P chimera (Cp3699) (from UniProt P08539 1-43; P30679 45-374)”, the min[AT]i in test [1] worked out at 1 mM.

As to “Gpal(1-43)-Gαi2(36-242)-GαoB(243-354) S280P chimera (Cp3635) (from UniProt P08539 1-43)”, the min[AT]i in test [1] is 1 mM.

In test [1], Gαi1 had a min[AT]i of 1.5 mM.

In test [2], “rat Gαs D229S (Cp3390) (from UniProt P63095 2-394)” had a fusl-lacZ reporter, β-galactosidase units on addition of NECA of 10 fold.

“rat Gαs D229V (from UniProt P63095 2-394)” returned a growth of the gpal fusl-HIS3 strain on 3-AT in test [1] of 0.2 mM.

With “rat Gαs E10K (from UniProt P63095 2-394)”, the fusl-lacZ reporter, β-galactosidase units on addition of NECA in test [2] is 10 fold. The growth of the gpal fusl-HIS3 strain on 3-AT in test [1] was 0.2 mM.

In turn, “rat Gαs E10K D229S double mutant (from UniProt P63095 2-394)” showed a fusl-lacZ reporter, β-galactosidase units on addition of NECA in test [2] of 10 fold.

“rat Gαs N254D (from UniProt P63095 2-394)” showed a fusl-lacZ reporter, β-galactosidase units on addition of NECA in test [2] of 10 fold. The growth of the gpal fusl-HIS3 strain on 3-AT in test [1] worked out at 0.2 mM.

In test [2], “rat Gαs S286P (from UniProt P63095 2-394)” gave a fusl-lacZ reporter, β-galactosidase units on addition of NECA of 10 fold. The same substance yielded a growth of the gpal fusl-HIS3 strain on 3-AT in test [1] of 0.2 mM.

On to “rat Gαs, wild type (Cp3098) (from UniProt P63095 2-394)”, for which the growth of a gpal fusl-HIS3 colony on media lacking histidine with 3-AT in test [1] was 1 mM.
